The source of these data is article PMC12093452.

For this experiment, the target named is Postsynaptic density lattice (PSDL) preparation (OG-11U-IS) (rat). In words: negative-staining electron microscopy of grid-immobilised structures incubated with polymerizing tubulin; PSDL or PSD immobilised on the Formvar membrane of an EM grid, blocked with NGS and BSA at 0°C and 37°C, placed on a droplet of tubulin (ML116, 2 mg/mL, GTB, 1 mM GTP, 5% glycerol) polymerizing at 37°C; fixed with 1% glutaraldehyde, stained with nano-W.

As for “Tubulin MAP-rich, ML116, Cytoskeleton Inc. (from UniProt P02550 1-451) (complex)”, the percent of MT ends associated with PSDL and/or PSDL-like structures was 30.9%.
